Reference: article PMC7840522, “Ca14-3-3 Interacts With CaWRKY58 to Positively Modulate Pepper Response to Low-Phosphorus Starvation”
One block for each molecule: values may come before it.

Assays:
[1] = molecular target: Ca14-3-3-GFP (pepper (Capsicum annuum)); test: MST; 20 nM Ca14-3-3-GFP as target, CaWRKY58-6 × His as ligand serially diluted (1.0E^-10 to 1.0E^-3 mM), 10 min in interaction buffer, Monolith NT.115, 50% IR laser power, ambient temperature
CaWRKY58-6xHis = molecular target: T1, CaWRKY58-6xHis (Capsicum annuum, UniProt Q5DJV3 1-378); test: EMSA; not stated in the material (EMSA as in cited works; Cy5 probes, Odyssey CLX); conditions: protein: recombinant; tags: 6xHis (pDEST17; text says N-terminal 6xHis); label: Cy5
T1 sequence: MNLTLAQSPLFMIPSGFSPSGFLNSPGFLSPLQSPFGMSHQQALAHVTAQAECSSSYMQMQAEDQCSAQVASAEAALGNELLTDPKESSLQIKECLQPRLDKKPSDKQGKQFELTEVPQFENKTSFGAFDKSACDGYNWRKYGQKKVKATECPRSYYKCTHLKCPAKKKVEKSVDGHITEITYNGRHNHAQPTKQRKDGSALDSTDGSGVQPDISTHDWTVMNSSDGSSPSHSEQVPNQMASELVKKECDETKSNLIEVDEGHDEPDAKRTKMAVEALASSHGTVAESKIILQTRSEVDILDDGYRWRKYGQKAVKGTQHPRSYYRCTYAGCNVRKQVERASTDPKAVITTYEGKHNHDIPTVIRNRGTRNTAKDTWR

Kd [1]: 210 nM
Molecule: CaWRKY58-6 × His (GFP fusion protein)

B1: mCaPHR1-P (mCaPHR1-Pcy5) (dsDNA)
DNA 1: AAACTATGCTCCTACATCTAAATTT
DNA 2: AAATTTAGATGTAGGAGCATAGTTT
binding result (CaWRKY58-6xHis): no binding
